One assay addresses T1, HPV33 L1/L2-capsid (human papillomavirus type 33, UniProt P06418 1-467; P06416 1-499).
T1 construct: Capsid of co-expressed L1 and L2 from 293FT cells; The pseudovirus is the same capsid with a reporter plasmid; also called L1/L2-capsid of type 33; HPV33 pseudovirus
T1 sequence 1: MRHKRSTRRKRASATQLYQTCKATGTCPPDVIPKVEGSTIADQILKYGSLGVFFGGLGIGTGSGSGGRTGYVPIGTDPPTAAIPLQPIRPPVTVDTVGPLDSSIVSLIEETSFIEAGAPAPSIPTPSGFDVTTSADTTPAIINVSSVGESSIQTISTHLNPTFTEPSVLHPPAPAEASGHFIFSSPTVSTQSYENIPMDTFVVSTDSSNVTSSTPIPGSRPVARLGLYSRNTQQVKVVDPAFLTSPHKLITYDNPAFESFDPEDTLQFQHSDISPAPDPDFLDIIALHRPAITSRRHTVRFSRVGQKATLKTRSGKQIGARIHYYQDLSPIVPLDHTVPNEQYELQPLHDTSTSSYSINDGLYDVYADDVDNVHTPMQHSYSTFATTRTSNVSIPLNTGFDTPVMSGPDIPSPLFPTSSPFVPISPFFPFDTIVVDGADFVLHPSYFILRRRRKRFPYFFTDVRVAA
T1 sequence 2: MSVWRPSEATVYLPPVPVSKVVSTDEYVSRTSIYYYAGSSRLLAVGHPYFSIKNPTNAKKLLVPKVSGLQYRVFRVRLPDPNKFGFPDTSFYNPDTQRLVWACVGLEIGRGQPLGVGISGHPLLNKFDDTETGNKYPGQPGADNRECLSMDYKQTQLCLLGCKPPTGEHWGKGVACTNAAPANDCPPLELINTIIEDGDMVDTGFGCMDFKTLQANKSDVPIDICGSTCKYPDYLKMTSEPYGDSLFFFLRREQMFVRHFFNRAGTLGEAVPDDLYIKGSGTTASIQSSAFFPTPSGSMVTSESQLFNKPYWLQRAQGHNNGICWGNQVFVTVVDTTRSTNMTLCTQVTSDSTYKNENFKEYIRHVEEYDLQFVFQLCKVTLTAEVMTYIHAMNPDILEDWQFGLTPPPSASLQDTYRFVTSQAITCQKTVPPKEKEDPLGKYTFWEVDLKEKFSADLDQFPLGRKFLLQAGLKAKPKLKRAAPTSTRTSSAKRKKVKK
Nature of the assay: ELISA on immobilized L1/L2-capsid, ascites 1:100. In general terms: In an ELISA, binding on a coated surface is turned into a signal by an enzyme label.

The target of assay [1] is T2, HPV35 L1/L2-capsid (human papillomavirus type 35, UniProt P27234 1-469; P27232 1-502).
T2 construct: Capsid of co-expressed L1 and L2 from 293FT cells; The pseudovirus is the same capsid with a reporter plasmid; also called L1/L2-capsid of type 35; HPV35 pseudovirus
T2 sequence 1: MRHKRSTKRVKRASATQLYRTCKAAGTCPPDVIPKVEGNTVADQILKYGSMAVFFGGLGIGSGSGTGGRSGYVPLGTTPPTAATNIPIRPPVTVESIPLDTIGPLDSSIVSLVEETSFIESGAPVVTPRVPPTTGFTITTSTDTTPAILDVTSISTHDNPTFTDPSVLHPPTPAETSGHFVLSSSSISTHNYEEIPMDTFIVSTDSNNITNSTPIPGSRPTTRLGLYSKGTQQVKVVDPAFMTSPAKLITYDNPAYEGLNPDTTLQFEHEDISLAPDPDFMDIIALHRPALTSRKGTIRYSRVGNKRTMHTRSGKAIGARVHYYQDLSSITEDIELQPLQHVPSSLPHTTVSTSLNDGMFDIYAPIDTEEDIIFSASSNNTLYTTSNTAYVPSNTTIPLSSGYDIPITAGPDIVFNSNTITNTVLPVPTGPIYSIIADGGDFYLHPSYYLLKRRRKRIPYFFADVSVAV
T2 sequence 2: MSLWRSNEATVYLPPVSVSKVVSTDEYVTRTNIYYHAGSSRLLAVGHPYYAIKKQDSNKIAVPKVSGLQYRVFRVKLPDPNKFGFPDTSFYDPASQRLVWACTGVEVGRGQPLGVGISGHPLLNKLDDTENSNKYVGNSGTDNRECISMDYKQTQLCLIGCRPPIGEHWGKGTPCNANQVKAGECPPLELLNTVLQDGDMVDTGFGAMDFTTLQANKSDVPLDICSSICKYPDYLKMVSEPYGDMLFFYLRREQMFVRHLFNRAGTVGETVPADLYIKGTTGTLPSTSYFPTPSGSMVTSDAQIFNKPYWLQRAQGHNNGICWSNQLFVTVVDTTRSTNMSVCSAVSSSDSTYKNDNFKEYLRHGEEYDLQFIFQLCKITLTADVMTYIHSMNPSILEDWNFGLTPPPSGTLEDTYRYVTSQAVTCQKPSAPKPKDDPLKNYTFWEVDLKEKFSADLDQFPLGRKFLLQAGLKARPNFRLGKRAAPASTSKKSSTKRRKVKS
The assay is described as follows: ELISA on immobilized L1/L2-capsid, ascites 1:100.

Assay [2] has as its target T2, HPV35 L1/L2-capsid. The assay is described as follows: ELISA on immobilized L1/L2-capsid.

B1: monoclonal antibody 24B (antibody, V domains shown)
VH: EVQLQQSGTVLARPGASVKMSCKASVYSFPSNWMHWVKQRPGQGLEWIGAIYPGTGATRYNQKFKDKAKLTAVTSADTAYMELSSLTDEDSAVYYCTGYSLYWGQGTILTVSS
VL: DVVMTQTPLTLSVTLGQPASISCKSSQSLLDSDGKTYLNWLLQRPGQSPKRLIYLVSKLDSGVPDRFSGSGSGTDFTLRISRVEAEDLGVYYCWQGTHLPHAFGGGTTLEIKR
notes: Used as mouse ascites or as antibody purified from ascites; also called Mouse-Mouse hybridoma 24B (FERM BP-11305)
With B1, the binding result with HPV33 L1/L2-capsid and with HPV35 L1/L2-capsid [1] was “binds” each time.

B2: monoclonal antibody 13B (antibody, V domains shown)
VH: DVQLQESGPGLVKPSQSLSLSCTVTGYSITSDSAWNWIRQFPGNKLEWMGYITFSGSTNYNPSLKSRLSITRDTSKNQFFLQLNSVTTEDTATYYCTGPFLDYWGQGTTLTVSS
VL: DVVMTQTPLSLPVSLGDQATISCRSSLSLVLSNRITYLQWYLQKPGQSPKLLIYKVSNRFSGVPDRFSGSGSGTDFTLKISRVEAEDLGVYFCSQSSHFPWTFGGGTKLEIKR
notes: Used as mouse ascites or as antibody purified from ascites; also called Mouse-Mouse hybridoma 13B (FERM BP-11304)
As to B2, the binding result with HPV35 L1/L2-capsid [2] is “no binding (tested: ascites diluted 1:100)”.
